The test addresses actin filaments (skeletal muscle) (Gallus gallus), P68139. To be noted: modification not given.

B1: mEGFP-Lifeact (peptide)
chain: MGVADLIKKFESISKEE
For orientation: Kd means the concentration at which binding is half-saturated. Low readings indicate a tighter complex, high ones a looser complex. The molecule B1 registered a Kd of 9.3 µM.
